Assay: yeast display, Sf9 membrane polyspecificity reagent, FACS + sequencing; frameworks hold sequencing errors
Procedure, shortened: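 Polyreactivity labels are assigned by the sorting gate from which each nanobody was recovered. The gates were low and high (top ~1%), set on anti-HA fluorescence for expression and streptavidin fluorescence for reagent binding. Before sorting, galactose-induced (36–48 hours) yeast display cells were stained for 1 hour at 4 °C with 10% biotinylated, detergent-solubilized Sf9 membrane reagent.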

Sequence | polyreactivity (PSR sort gate)
QVQRVESGGGLVQAGGRLRLSCAASGLIFAHDARGWYRQAPGKERELVAGINRSGGSTYYADSVKGRFTISRDNAKNTVYLQTNSLKPEDTAVYYCAARRAYPRPGYDYWGQGTQVTVSS | high polyreactivity
QVQRVESGGGLVQAGGSLRISCAASGLTINNYARGWYRQAPGKERELVAAISFSGGDTYYADSVKGRFTISRDNAKNTVYLQMNSLKPEDTGVYYFAAESYSVLQMGYWGQGTQVTVSS | high polyreactivity
QVQRVESGGGLVQAGGSLRLSCAASAFTFGANAMGWSRQAPGKERELVAAISVSDGITYYADSVKGRFTISRDNAKNTVYLLMNSLKPEDTAVYYCAAETYGYLFHSYDYWGQGTQVTVSS | low polyreactivity
QVQRVESGGGLVQAGGSLRLSCAASANTYLNAMGWYIQAPGKESELVAAISKGGADTYYADSVKGRFTISRDNAKNTVYLQMTSLIPEDSAVYYCADVGYADGWWVDYPWTYDYWGQGTQVTVSS | low polyreactivity
QVQRVESGGGLVQAGGSLRLSCAASGFIFPWYAMGWYRQAPGKESELVAAISRGGRTNYADSVKGRFTISRDNAKNTVYLQMNSLKPEDTAVYYCAKKYYLSGSRADDSGGQGTQVTVSS | high polyreactivity
QVQRVESGGGLVQAGGSLRLSCAASGIIFQSYAMGWYRQAPGKERELVAAISRRGRRTYYADSVKGRFTFSRDNAKNTVDLQMTSLKPEDTAVYYCADRYRYAPYDYWGQGTQVTVSS | high polyreactivity
QVQRVESGGGLVQAGGSLRLSCAASGLTFNNNAMGCYRQAPGTARELVAAISRTAVRTYYADSVKGRFTISRDNAKNTVYLQMNSLKPEDTAVYYCNGVSYYGGYPVTYDYWGQGTQVTVSS | high polyreactivity
QVQRVESGGGLVQAGGSLRLSCAASGLTSKFYAMGWYRQAPRKERELVAAISGSGGSTYYADSVKGRFTISRDKAKNTVYLQMNSLKPEDTAVYYFAARYFGLRYYYWGQGTQVTVSS | high polyreactivity
QVQRVESGGGLVQAGGSLRLSCAASGRIFRYNAMGWYRQAPGKERELVAAISGTADRTYYADSVKGRFTNSRDNAKNTVYLQMNSLKPEDTAVYYCAVAYSYRYYYWGQGTQVTVSS | high polyreactivity
QVQRVESGGGLVQAGGSLRLSCAASGRIFSIYGMGWYRQAPGKERELVAVISGSVGITYYADSVKGRFTISRDNAKNTVYLQINSLKPEDTAVFYCNAKVRRRKYDYWGQGTQVTVSS | high polyreactivity
QVQRVESGGGLVQAGGSLRLSCAASGRPFDVYALGGYRQAPGKERELVATITYSGGITYYADSVKGRFTISRDNAKTTVYLQMNSLKPEDTAVYYPIGVGGDYDYWGQGTQVTVSS | low polyreactivity
QVQRVESGGGLVQAGGSLRLSCAASGRTFAPNAMGWYRQAPGKERELVAAITRRTGSTYYADSVKGRFTISRDNAKNTVYLQMNSLKPEDTAVYYCNGRRRTWYGFYYWGQGTQVTVSS | high polyreactivity
QVQRVESGGGLVQAGGSLRLSCAASGSIFRGYAMGWYRQEPEKERELVAAISRRGGSTYYADSVKGRFTISRDNAKNTVYLQMNSLKPEDTAVYYCAIDGTGAGTYDYWGQGTQVTVSS | low polyreactivity
QVQRVESGGGLVQAGGSLRLSCAASGSIFYWYAMGWNIQAPGEEREFVAAITWSGGSTYYADSVKGRFTISRDNAKNTVYLQMNSLQPEDTAVYSCAAQGRRYGYGDFYYWGQGSQVTVSS | high polyreactivity
QVQRVESGGGLVQAGGSLRLSCAASGSTFTRYGMGWYRQAPGKERELVAAISDRGVSTYYADSVKGRFTISRDNAKNTVYLQMNRMKPEDTAVYYCAAVFWVDILPGDYWGQGTQVTVSS | low polyreactivity
QVQRVESGGGLVQAGGSLRLSCAASGSTFYFYARGWYRQAPGKERELVAVITDGGAITYYADSVKGRFTISRDNAKNTVYLQMNSLKPEDTAVYYCAASSFGWYTRYDYWGQGTQVTVSS | high polyreactivity
QVQRVESGGGLVQAGGSLRLSCAASGSTLGYYTMGWYRQAPGKERELVAAIDWSGGSTYYADSVKGRFTISRDNAKNTGYLQMNSLKPEDTAVYYCNAEPWDPFYSPGRGGMDYWGQGTQVTVSS | low polyreactivity
QVQRVESGGGLVQAGGSLRLSSADSGLTLYRYAMGWYRQAPGKERELVAAISSGDRTNYADSVKGRFTISRDNAKNTVYLHMNSLKPEDTAVYYCAALRQARQKKYGYWGQGTQVTVSS | high polyreactivity
QVQRVESGGGLVQAGGSLRLSWAASGSTFSRYAMGWYRQAPGTERELVAAISASGGGTYYADSVKGRFTISRDNAKNTVYLQMNSLQPEDTAVFYCAAVRIARAVQDYDYWGQGTQVTVSS | high polyreactivity
QVQRVESGGGLVQAGGSLRLTSAVSGTTFYIYAMGWYRQAPGKEREFVAAIDFSGSSTYADSVKGRFTISRDNAKNTVYLQMNSLKPEDTEVYYCAAYQIFQYDGPYDYWGQGTQVTVSS | low polyreactivity
QVQRVESGGGLVQAGGSRRLSCAASGNIFRRYTMGWYRQAPGKERELVAAISRRGGSTHYADSVKGRFTISRDNAKNTVYLQMNSLKPEDTAVYYCNAYLVYSYSPSHYYGFGYWGQGTQVTVSS | high polyreactivity
QVQRVESGGGLVQAGGSRRLSCAASGSIFSAYAMGWYRQAPGKEREFVAAITRRGGNTYYADSVKGRFTISRDNAKNTVYLQMNSLKPDDTAVYYCAADAGGGPFDYSGQGTQVTVSS | low polyreactivity

Sequence | polyreactivity (PSR sort gate)
QVQRVESGGGLVQAGGSRRLTCAASGRTSVPYARGWYRQAPGKERELVAAITSGGSTYYADSVKGRFTISRDNAKNTVYLQMNSLKPEDTAVYYCAASLPHSAPYTASYGSWGQGTQVTVSS | low polyreactivity
QVQRVESGGGLVQAGGTLRLSCAASGNTFDYYAMGWYRQAPGKERELVAAIRYRGGTTYYADSVKGRFTISRDNAKNTVYLQMNSLKPEDTAVYYCAARYVPYSRRYNYWGQGTQVTVSS | high polyreactivity
QVQRVESGGGLVQARGSLRLSCAASGRIFYRYAMGWNIQAPGKERELVAAISGSVGSTYADSVKGRFTISRDNAKNTVYLQMNSLKPEDTAVYYCARETYRRYGAYDYWGQGTQVSVSS | low polyreactivity
QVQRVETGGGLFQAGGSLRLSCAASGRTFGPYAMGWYIQAPGKERELVAAIRYIDDSTFYADSVKGRFTISRDNAKNTVYVQMNSLKPEDTAVYYCAAQRRVVGRHGLSLIRYDYWGQGTQVTVSS | low polyreactivity
QVQVESGGGLVQAGGSLRLSCGASGSIIDQYVMGWYRQAPGKERELVAAISRGGRTYYADSVKGRFTISRDNAKNTVYLQMNSLNPEDTAVYYCATGYGPYLGRPHLTLYYYWGQGTQVTVSS | low polyreactivity
QVQVVDSGGGLVQAGGSLLLSCAASGSILGFNAMGWYRQSPGKEMELVASISSSGDSTYYADSEKGRFTISRDNAKNTVYLQMNSLKPEDTAVYYCATEGRTDYNREMEYWGQGSQVTVSS | low polyreactivity
QVQVVESGGGLVHAGGSLRLSCAASGITCVWNDMGWYRQPPGKEREFVAGITYRSGRTYYADSVKGRFTISRDNAKNTVYLQMNSLKPEDTAGYYCATTPRYTTYNYWGQGTQVTVSS | high polyreactivity
QVQVVESGGGLVKAAGSLGLSCSASGLNFRFYTMGWYRQAPGKERELVAAISTSGGSTYYADSVKGRFTISRDNAKNNVFLQMNSLKPEDTAVYYCIAVYAFNGYDYWGQGTQVTVSS | low polyreactivity
QVQVVESGGGLVQAGGRLRLSCAASGSTFKYYVMGWYRQAPGKERELVAAITRSGSTNYADSVKGRFRISRDNAKNTVYLQMNSLKPEDTAVYYCATDSLRLYGGKRDQYYWGQGTQVTVSS | low polyreactivity
QVQVVESGGGLVQAGGSIRLSCAASGSILSRYAMGWYRQAPGKERELFAAITSSGGTTYYADSVKGRFTISRDTAKNTVYLQMNSLKPEDTAVYYCADHGSRYGYGDFYYWGQGTQVTVSS | high polyreactivity
QVQVVESGGGLVQAGGSLRISCAASGSIFPGYDMGWYRQAPGKERELVAAIRTSGGSTNYADSVKGRFTISRDNAKNTVYLQMNSLKPEDTAVYYCAARTNSPRGTKRYYWGQGTQVTVSS | high polyreactivity
QVQVVESGGGLVQAGGSLRLSCAASGIIFKQNVMGRYIQAPGKERELVAAISRGGSTNYADSLKGRFTISRDNAKNTVYLQMNSLKPEDTEVYYCAARFVLRREYGYWGQGTQVTVSS | high polyreactivity
QVQVVESGGGLVQAGGSLRLSCAASGRIFYQNAMGWYRPAPGKERELVADISSGGSTYYADSVKGRFTISRDNAKNTVYLQMNSLKPEDTAVYYCNTPSGPGTVGSYRRIWYGYWGQGTQVTVSS | low polyreactivity
QVQVVESGGGLVQAGGSLRLSCAASGRIFYTNAMGWYRQAPGKERELVAVISWGGDTTYYADSVKGRFTISRDKAKNTVYLQMNSLKPEDTAVYYCNADWGPTYEIYDSWGQGTQVTVSS | low polyreactivity
QVQVVESGGGLVQAGGSLRLSCAASGSIFFFYAMGWYRQAPGQERELVAAITGSGGSTYYADSVKGRFTISRDKAKNTVYLQMNSLKPEDPAVYYCAVRTSRQVYSYGGYESWGHGTQVTVSS | low polyreactivity
QVQVVESGGGLVQAGGSLRLSCAASGSIFYDYAMGWYRQAPGKERELVAAISWSGGRTYYADSVKGRFTISRDYAKNTVYLQMNSLKPEDTAVYYCAATTGVRSRRYYYWGQGTQVSVSS | low polyreactivity
QVQVVESGGGLVQAGGSLRLSCAASGSILGLYAMGWYRQAPGKERELVAAITYRGGRTDYADSVKGRFTISRDNAKNTVYLQMNCLKPEDTAVYYCAAGYLPRPRYSTSYLYYYWGQGTQVTVSS | high polyreactivity
QVQVVESGGGLVQAGGSLRLSCAASGSTFGYYAMGWYRQAPGKERELVAAISGTGSTYYADSVKGRFTISRDNAKNTVFLQMNSLKPEDTAVYYCAAYPRGSQRYNYWGQGTQVTVSS | high polyreactivity
QVQVVESGGGLVQAGGSLRLSCAASGSTFVIYDMGWYRQAPGKERELVAVITIIGGSTYYADAVKGRFTISRDNAKNTVYLELNSLKPEDTAVYDCAVEVGYTDSPYSYDYWGQGTQVTVSS | low polyreactivity
QVQVVESGGGLVQAGGSLRLSCAASGSTLSKNAMGWYRQAPGKERELVAAITLRGGSTSFADSVKGRFTISRDNAMNTVYLHMNSLKPEDTAVYYCNAVSKFDYGYWVQGTQVTVSS | high polyreactivity
QVRLVESGGGLVQAGGSLRLSCAASGFTFVVNAMGWYRQAPGKERELVAAITCSGGRTYYADSVKGRFTISRDNAKNTVSLQMNSLKPEDTAVYYCNAEWDDYEIEYDYWGQGTQVTVSS | low polyreactivity

— the nanobody polyreactivity screen of Harvey et al. (2022)
